In publication PMC6585436 (Chemistry & biology, 2015):
Values joined by “and” are separate entries in the source; they are usually repeats but may differ in a detail not shown here. Identical values can stand only once. Like-named read-outs stand apart in the source and are kept apart here.

Assays:
Assay in all cases: native MS
[1] = target: AfMscL C-GFP (pet15b-AfMscL-TEV-GFP-6xHis) (Acidithiobacillus ferrooxidans)
[2] = target: N-His MtMscL (pet15b-10xHis-Thrombin-MtMscL-PG) (Mycobacterium tuberculosis) (UniProt A5U127)
[3] = target: N-His MtMscL (pet15b-10xHis-Thrombin-MtMscL-PG) (Mycobacterium tuberculosis) (UniProt A5U127); remark: listed apart in the source
native MS [4] = target: the molecule itself
native MS [5] = target: the molecule itself; remark: listed apart in the source
native MS [6] = target: the molecule itself; remark: listed apart in the source
native MS [7] = target: the molecule itself; remark: listed apart in the source
native MS [8] = target: the molecule itself; remark: listed apart in the source

For “AfMscL C-GFP (pet15b-AfMscL-TEV-GFP-6xHis) (natural protein)”, which stoichiometry N [1] is on record?
The stoichiometry N was 5.

Which relative abundance of pentamer [2] does the source give for “N-His MtMscL (pet15b-10xHis-Thrombin-MtMscL-PG) (from UniProt A5U127 1-151) (natural protein)” here?
Its relative abundance of pentamer is 38%.

What about the relative abundance of tetramer [2] of the same molecule?
Its relative abundance of tetramer is 63%.

And the stoichiometry N [2]?
The stoichiometry N was 4.

And the stoichiometry N [3]?
The stoichiometry N was 5.

B1: SaMscL C-GFP (pet15b-SaMscL-S-TEV-GFP-6xHis) (natural protein, Staphylococcus aureus, UniProt P68805 1-120, looked up)
chain: MLKEFKEFALKGNVLDLAIAVVMGAAFNKIISSLVENIIMPLIGKIFGSVDFAKEWSFWGIKYGLFIQSVIDFIIIAFALFIFVKIANTLMKKEEAEEEAVVEENVVLLTEIRDLLREKK
B1 was tested. Which “stoichiometry N” value (native MS [4]) did it give?
The value was 4.

What about the “stoichiometry N” value (native MS [5]) of the same molecule?
The value was 5.

B2: Full-length SaMscL, cleaved of its C-terminal GFP tag (natural protein, Staphylococcus aureus, UniProt P68805 1-120, looked up)
chain: B1 chain
How did the “stoichiometry N” value (native MS [6]) turn out when B2 was run?
The value was 5 and 4.

B3: N-His SaMscL (pet15b-10xHis-Thrombin-SaMscL) (natural protein, Staphylococcus aureus, UniProt P68805 1-120, looked up)
chain: B1 chain
Which “stoichiometry N” value (native MS [5]) does the source give for B3 here?
The value was 4 and 3 and 2.

And the “stoichiometry N” value (native MS [7])?
The value was 5.

B4: SaMscL CΔ25 C-GFP (pet15b-SaMscL CΔ(96–120)-S-TEV-GFP-6xHis) (domain or fragment)
chain: MLKEFKEFALKGNVLDLAIAVVMGAAFNKIISSLVENIIMPLIGKIFGSVDFAKEWSFWGIKYGLFIQSVIDFIIIAFALFIFVKIANTLMKKEE
For B4, which “stoichiometry N” value (native MS [8]) is on record?
The value was 5.

What about the “stoichiometry N” value (native MS [7]) of the same molecule?
Its value is 4.
